In patent US20240343803A1 (SHANDONG SIMCERE BIOPHARMACEUTICAL, published 2024):
Substitutions are numbered along the chain they refer to.

T1: Fusion protein of extracellular domain of human TIGIT and mouse IgG2a Fc fragment (human TIGIT ECD-mFc) (human)
T1 construct: The entry includes the signal peptide (limits not recoverable) and the mouse IgG2a Fc
T1 chain: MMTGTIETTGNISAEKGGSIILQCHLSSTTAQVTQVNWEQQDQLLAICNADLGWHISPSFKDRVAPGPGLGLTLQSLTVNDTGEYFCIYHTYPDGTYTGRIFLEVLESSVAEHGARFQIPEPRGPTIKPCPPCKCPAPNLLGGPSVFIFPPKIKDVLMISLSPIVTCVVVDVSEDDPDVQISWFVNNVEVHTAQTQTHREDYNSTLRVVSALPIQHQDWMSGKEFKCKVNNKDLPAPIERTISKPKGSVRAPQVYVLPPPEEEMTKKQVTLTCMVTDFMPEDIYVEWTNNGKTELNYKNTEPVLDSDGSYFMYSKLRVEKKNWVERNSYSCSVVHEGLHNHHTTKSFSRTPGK

T2: Full-length human TIGIT on CHO-K1 cells (CHO-K1 human TIGIT) (human, UniProt Q495A1 22-244)
T2 construct: NCBI XP_024309156.1; the entry includes the signal peptide (limits not recoverable); The strain (high, medium, low) is named under assay; also called high expression strain 1D2; medium expression strain 2D10
T2 sequence: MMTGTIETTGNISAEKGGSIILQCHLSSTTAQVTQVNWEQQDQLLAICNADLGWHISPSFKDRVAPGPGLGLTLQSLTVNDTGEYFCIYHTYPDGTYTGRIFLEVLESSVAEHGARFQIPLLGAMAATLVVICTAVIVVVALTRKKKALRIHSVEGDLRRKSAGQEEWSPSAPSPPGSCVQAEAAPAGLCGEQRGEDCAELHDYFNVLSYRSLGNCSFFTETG

T3: Fusion protein of extracellular domain of human TIGIT and His-tag (human TIGIT ECD-his) (human)
T3 chain: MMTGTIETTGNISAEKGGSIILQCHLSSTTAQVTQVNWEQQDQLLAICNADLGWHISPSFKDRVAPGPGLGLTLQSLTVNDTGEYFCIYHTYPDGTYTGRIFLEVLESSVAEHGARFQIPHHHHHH

T4: cynomolgus monkey PVRIG on FlpinCHO-cyno PVRIG cells (cynomolgus monkey, UniProt A0A2K5WVV8 41-322)
T4 construct: whole, on cells
T4 sequence: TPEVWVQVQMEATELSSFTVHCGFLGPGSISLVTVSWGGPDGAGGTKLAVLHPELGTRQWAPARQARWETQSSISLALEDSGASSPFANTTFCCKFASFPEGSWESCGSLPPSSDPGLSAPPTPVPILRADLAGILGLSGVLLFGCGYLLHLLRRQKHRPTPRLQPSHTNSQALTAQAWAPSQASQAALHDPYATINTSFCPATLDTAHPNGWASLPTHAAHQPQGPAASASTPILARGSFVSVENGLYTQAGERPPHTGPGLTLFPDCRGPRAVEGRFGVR

T5: human PVRIG on FlpinCHO-PVRIG cells (human, UniProt Q6DKI7 41-326)
T5 construct: whole, on cells
T5 sequence (looked up): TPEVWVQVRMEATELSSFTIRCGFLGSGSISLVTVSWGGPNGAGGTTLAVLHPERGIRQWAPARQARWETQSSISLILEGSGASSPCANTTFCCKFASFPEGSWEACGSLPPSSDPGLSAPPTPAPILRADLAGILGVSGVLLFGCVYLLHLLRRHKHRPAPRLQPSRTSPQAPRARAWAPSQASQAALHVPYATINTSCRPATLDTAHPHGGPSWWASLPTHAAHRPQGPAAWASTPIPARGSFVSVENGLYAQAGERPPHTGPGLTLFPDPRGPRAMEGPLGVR

T6: cynomolgus monkey PVRIG (Novoprotein, Cat NO. C09B) (cynomolgus monkey, UniProt A0A2K5WVV8 41-171)
T6 construct: Bought reagent; also called cynomolgus monkey PVRIG protein
T6 sequence: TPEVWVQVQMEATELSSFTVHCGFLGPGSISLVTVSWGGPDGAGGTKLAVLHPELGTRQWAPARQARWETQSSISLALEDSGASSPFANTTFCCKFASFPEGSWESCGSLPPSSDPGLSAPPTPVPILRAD

T7: human PVRIG-his (AcroBiosystems, Cat NO. PVG-H52H4) (human, UniProt Q6DKI7 41-171, limits assumed)
T7 construct: Bought reagent; also called human PVRIG protein
T7 sequence (looked up): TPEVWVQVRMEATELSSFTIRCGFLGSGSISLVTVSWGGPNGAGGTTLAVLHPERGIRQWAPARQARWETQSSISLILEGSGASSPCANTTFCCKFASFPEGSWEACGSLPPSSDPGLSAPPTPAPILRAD

B1: TIGIT-070-H2L1 (antibody, V domains shown)
VH: EVQLVQSGAEVKKPGASVKVSCKASGYTFTNYYMHWVRQAPGQRLEWMGRIDPDSGGSKYNEKFKSRVTITVDKLSSTAYMELSSLRSEDTAVYYCAREGHYGFYSDYWGQGTTVTVSS
VL: DIQMTQSPSSLSASVGDRVTITCRVSENIYSYLAWYQQKPGKSPKLLIYNAKTLAEGVPSRFSGSGSGTDFTLTISSLQPEDFATYYCQHHYGNPLTFGPGTKVDIK
notes: Humanized anti-TIGIT antibody
B2: TIGIT-070-H2L2 (antibody, V domains shown)
VH: B1 VH
VL: B1 VL with I48V
notes: Humanized anti-TIGIT antibody
B3: TIGIT-070-H1L2 (antibody, V domains shown)
VH: B1 VH with L75S, S76A
VL: B1 VL with I48V
notes: Humanized anti-TIGIT antibody
B4: PVRIG-A43 (Fc fusion)
chain: QVQLVESGGGLVQSGGSLRLSCAASGRTRSMYVMGWFRQAPGKEREFVGRIKWSGDTTYTSYADFVKGRFTLYGNQARNTVYLQMNSLKVEDTAVYYCAGRVVPLPSRQRDRYDYWGQGTQVTVSS
notes: Alpaca VHH joined to human IgG1 Fc (VHH-hinge-CH2-CH3); not shown: human IgG1 hinge-CH2-CH3
B5: PVRIG-A104 (Fc fusion)
chain: EVQVVESGGGLVQAGGSLRLSCAASGRTRSMYVMGWFRQAPGKEREFVGRIKWSGDTTYTSYADFVKGRFTLYGNQARNTVYLQMNSLKPEDTAVYYCYRRSWTNTKLYWGKGIQVTVSS
notes: as for B4

Tests used:
[1] = target: T8, Fusion protein of extracellular domain of human TIGIT and human IgG1 Fc fragment (human TIGIT ECD-hFc) (human); experiment: blocking of TIGIT ECD-hFc binding to CHO-K1 CD155 cells
T8 construct: The entry includes the signal peptide (limits not recoverable) and the human IgG1 Fc
T8 sequence (chain, as listed by the source limits assumed): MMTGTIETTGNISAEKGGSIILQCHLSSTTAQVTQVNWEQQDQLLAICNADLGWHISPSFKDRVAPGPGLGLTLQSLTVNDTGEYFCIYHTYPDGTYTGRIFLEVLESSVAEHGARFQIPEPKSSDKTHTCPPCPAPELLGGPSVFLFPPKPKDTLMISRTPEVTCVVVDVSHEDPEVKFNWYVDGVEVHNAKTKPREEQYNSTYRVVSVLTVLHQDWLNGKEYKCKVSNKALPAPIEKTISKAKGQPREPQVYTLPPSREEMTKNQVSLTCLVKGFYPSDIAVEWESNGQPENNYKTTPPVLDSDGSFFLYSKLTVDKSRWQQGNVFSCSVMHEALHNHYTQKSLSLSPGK
Outline: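 Cell-based ELISA on CHO-K1 CD155 cells, cultured overnight, fixed and blocked with 5% skim milk-PBS. Antibodies were premixed for 0.5 h with human TIGIT ECD-hFc (working concentration 30 ng/mL), then added and held at 37° C for 1.5-2 h. Bound TIGIT was detected with HRP secondary antibody (1:5000, 37° C, 1 h) and TMB, read as OD450 nm. IC50 came from the inhibition curves.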

[2] = target: T1, Fusion protein of extracellular domain …; experiment: ELISA, human TIGIT ECD-mFc
Outline: (§1)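 Antibodies diluted to 13 nM in 1% BSA, then 3-fold serial dilution for 12 concentrations, incubated with milk-blocked plates at 37° C for 1.5-2 h. Bound antibody detected with HRP-labelled secondary antibody (1:5000, 37° C, 1 h) and TMB, stopped with 1M HCl; OD450 nm read.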

[3] = target: T9, Fusion protein of extracellular domain of cynomolgus monkey TIGIT and mouse IgG2a Fc fragment (cynomolgus … (cynomolgus monkey)); experiment: ELISA, cynomolgus monkey TIGIT ECD-mFc
T9 construct: The entry includes the signal peptide (limits not recoverable) and the mouse IgG2a Fc
T9 sequence (chain, as listed by the source limits assumed): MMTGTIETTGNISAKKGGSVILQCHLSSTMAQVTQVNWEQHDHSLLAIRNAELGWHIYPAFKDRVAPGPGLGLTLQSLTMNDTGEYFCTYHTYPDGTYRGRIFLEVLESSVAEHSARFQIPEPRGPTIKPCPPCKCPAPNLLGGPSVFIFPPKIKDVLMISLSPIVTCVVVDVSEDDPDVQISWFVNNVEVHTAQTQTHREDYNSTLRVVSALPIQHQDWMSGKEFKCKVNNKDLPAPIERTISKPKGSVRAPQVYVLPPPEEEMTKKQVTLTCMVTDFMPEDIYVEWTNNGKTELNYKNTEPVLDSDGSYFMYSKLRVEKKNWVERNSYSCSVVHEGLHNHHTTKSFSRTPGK
Outline: as §1

[4] = target: T10, Full-length cynomolgus monkey TIGIT on CHO-K1 cells (CHO-K1 cynomolgus monkey TIGIT) (cynomolgus monkey); experiment: cell binding, CHO-K1 cynomolgus monkey TIGIT
T10 construct: NCBI XP_015300911.1
T10 sequence (chain, as listed by the source limits assumed): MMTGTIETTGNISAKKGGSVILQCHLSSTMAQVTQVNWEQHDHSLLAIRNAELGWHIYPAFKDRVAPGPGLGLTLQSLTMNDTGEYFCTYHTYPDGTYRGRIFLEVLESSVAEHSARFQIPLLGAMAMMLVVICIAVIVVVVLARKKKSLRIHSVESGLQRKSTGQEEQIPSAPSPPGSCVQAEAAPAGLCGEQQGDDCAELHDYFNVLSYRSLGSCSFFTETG
Outline: (§2)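 Binding was measured by flow cytometry after a 60-minute, 4° C incubation of the antibodies with 2×10⁵ CHO-K1 cells displaying full-length human or cynomolgus monkey TIGIT. Antibody titration: 12 points, threefold serial dilution from 80 nM, in 1% BSA-PBS.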

[5] = target: T2, Full-length human TIGIT on CHO-K1 cells …; experiment: cell binding, CHO-K1 human TIGIT high expression strain
Outline: as §2

[6] = target: T3, Fusion protein of extracellular domain …; experiment: BIAcore
[7] = target: T3, Fusion protein of extracellular domain …; experiment: BIAcore; KD ratio to TIGIT-CHI-070
[8] = target: T4, cynomolgus monkey PVRIG on …; experiment: FACS, FlpinCHO-cyno PVRIG cells; AUC of MFI curve relative to COM701-hIgG1
Description: (§3) The Ham's F12 (Gibico, 21127-022) complete medium containing 10% FBS was then added to terminate the digestion and acquire cell suspension. After counting with a cell counter (Beckman Coulter, Vi-CELL), an appropriate amount of cell suspension was centrifuged at 350×g to remove the supernatant, washed twice with PBS, stained with Zombie violet (Biolegend, 423114) and incubated at room temperature for 20 minutes. After incubation, the cells were added with staining buffer (2% FBS+PBS) to stop staining, centrifuged at 350×g to remove the supernatant, washed twice and resuspended with staining buffer to a density of 2×10⁶ cells/mL. The cells were plated into a 96-well plate (50 μL of cell suspension per well) for further use. The antibodies were diluted from the highest concentration of 46 nM (two-fold concentration) with staining buffer by 3.3-fold serial dilution. The diluted antibodies were added to the well containing 50 μL of cell suspension. The plate was placed on a microplate shaker at 400 rpm for 1 minute to fully mix the antibodies and cells, and then incubated at 4° C. for 30 minutes. After the incubation, the cells were washed twice with staining buffer (200 μL per well) and centrifuged at 350×g for 5 minutes to discard the supernatant. The PE goat anti-human IgG Fc antibody (ebioscience, 12-4998-82) was diluted 250 times with staining buffer, added into the washed wells (100 μL per well), mixed well, and stained at 4° C. for 30 minutes. After staining, the cells were washed twice with staining buffer, finally resuspended with 200 μL staining buffer and analyzed by flow cytometry (BD, Canto II). The stronger the signal, the stronger the ability of the antibodies binds to PVRIG. An antibody binding curve was drawn with concentration of antibodies as the abscissa and the corresponding Mean Fluorescence Intensity (MFI) as the ordinate. The AUC value of the curve was calculated by using a Four Parameter Logistic Fit (GraphPadPrism9). The stronger the AUC value, the stronger the ability of the antibodies binds to FlpinCHO-PVRIG and FlpinCHO-cyno PVRIG. […] The binding activity of the antibodies was normalized to the positive control COM701-hIgG1 and SRF813-hIgG1.

[9] = target: T5, human PVRIG on FlpinCHO-PVRIG cells; experiment: FACS, FlpinCHO-PVRIG cells; AUC of MFI curve relative to COM701-hIgG1
Description: as §3

[10] = target: T5, human PVRIG on FlpinCHO-PVRIG cells; experiment: FACS, FlpinCHO-PVRIG cells; AUC of MFI curve relative to SRF813-hIgG1
Description: as §3

[11] = target: T6, cynomolgus monkey PVRIG (Novoprotein, …); experiment: ELISA, coated cynomolgus monkey PVRIG
Description: (§4) The ELISA plate was pre-coated with 100 μL/well of 0.5 μg/mL human PVRIG-his (AcroBiosystems, Cat NO. PVG-H52H4) or cynomolgus monkey PVRIG (Novoprotein, Cat NO. C09B). […] A HRP substrate, TMB (Thermo, Cat NO. 34029) was added into wells after washing the plate again for color development. After adding a termination solution to terminate the reaction, the absorbance value was read by a microplate reader (MD i3×). An antibody binding curve was drawn with concentration of antibodies as the abscissa and the corresponding OD value as the ordinate. The EC50 value was calculated by using a Four Parameter Logistic Fit (GraphPadPrism9). The smaller the EC50 value, the stronger the ability of the antibodies binds to human or cynomolgus monkey PVRIG. The positive control antibodies are COM701-hIgG1 (Patent No.:US20180244774A1), COM701-hIgG4 (patent No.: US20180244774A1) and SRF813-hIgG1 (Patent No.:US20200040081A1); and the negative control antibodies are anti-HA HcAb-hIgG1 (Chengdu NB Biolab, Cat NO. NBR022), anti-CD38 HcAb-hIgG1 (in-house) and anti-Fluorescein-hIgG1 (in house).

[12] = target: T4, cynomolgus monkey PVRIG on …; experiment: FACS, FlpinCHO-cyno PVRIG cells; AUC of MFI curve relative to SRF813-hIgG1
Description: as §3

[13] = target: T7, human PVRIG-his (AcroBiosystems, Cat …); experiment: ELISA, coated human PVRIG-his
Description: as §4

| Binder | IC50 [1] [nM] | EC50 [2] [nM] | EC50 [3] [nM] | EC50 [4] [nM] | EC50 [5] [nM] | Kd [6] [nM] | koff [6] [s⁻¹] | kon [6] [M⁻¹ s⁻¹] | Fold change vs chimeric antibodies (KD) [7] [fold] | % AUC to COM701-hIgG1 [8] [%] | % AUC to COM701-hIgG1 [9] [%] | % AUC to SRF813-hIgG1 [10] [%] | EC50 [11] [nM] | % AUC to SRF813-hIgG1 [12] [%] | EC50 [13] [nM] |
| --- | --- | --- | --- | --- | --- | --- | --- | --- | --- | --- | --- | --- | --- | --- | --- |
| B1 | 0.393 | 0.0129 | 0.0124 | 0.0799 | 0.0236 | 0.0808 | 0.000134 | 1.66e+06 | 0.82 | – | – | – | – | – | – |
| B2 | 0.448 | 0.0125 | 0.0112 | 0.0662 | 0.0312 | 0.0851 | 0.000142 | 1.67e+06 | 0.87 | – | – | – | – | – | – |
| B3 | 0.421 | 0.0118 | 0.0116 | 0.0879 | 0.0272 | 0.0883 | 0.000148 | 1.67e+06 | 0.9 | – | – | – | – | – | – |
| B4 | – | – | – | – | – | – | – | – | – | 19.6 | 165 | 181 | 0.036 | 25.7 | 0.0537 |
| B5 | – | – | – | – | – | – | – | – | – | 18.4 | 18.1 | 23.9 | 0.0353 | 23.9 | 0.0659 |
